Measured values as given in publication PMC6981440 (International Journal of Molecular Sciences, 2019).

B1: Fc fragment of GB2 (mouse IgG2b-Fc, apo form) (domain or fragment)
chain: CPAPNLEGGPSVFIFPPNIKDVLMISLTPKVTCVVVDVSEDDPDVQISWFVNNVEVHTAQTQTHREDYNSTIRVVSTLPIQHQDWMSGKEFKCKVNNKDLPSPIERTISKIKGLVRAPQVYILPPPAEQLSRKDVSLTCLVVGFNPGDISVEWTSNGHTEENYKDTAPVLDSDGSYFIYSKLNMKTSKWEKTDSFSCNVRHEGLKNYYLKKTISRSPG
notes: Fc fragment of the mouse IgG2b heavy chain of GB2, cut by papain; Fc dimer; three Fc dimers per asymmetric unit in the crystal; also called apo Fc; source: papain digestion of GB2 from mouse hybridoma, purified (Affi-gel protein A column)

Assays:
[1] = target: mouse anti-GM1 IgG2b(κ) antibody GB2 (mouse); assay: high-speed atomic force microscopy; antibody at 10 μg/mL in phosphate-buffered saline, 3 min on a mica-supported DOPC bilayer with GM1 (rings at >25% GM1; 50% GM1 in Figure 4), unbound antibody washed off; room temperature
[2] = target: the molecule itself; assay: crystal structure; apo Fc of GB2; 16% PEG3350, 0.2 M lithium chloride, 0.1 M Bis-Tris pH 6.5, 20 °C; P2(1)2(1)2(1), three Fc dimers per asymmetric unit, 2.30 Å

Molecule | stoichiometry N [1] | stoichiometry N [2]
mouse anti-GM1 IgG2b(κ) antibody GB2 | 6 | –
B1 | – | 3
